Data set [1] addresses T1, SARS-CoV-2 nucleocapsid C-terminal domain (N-CTD) (SARS-CoV-2 (Wuhan-Hu-1), UniProt P0DTC9 248-364). The data set can be described thus: EMSA; N-CTD:DNA molar ratios 2:1 to 10:1. To be noted: protein: recombinant, tags: N-terminal His6 removed by TEV, residual Gly-Ala-Ser at N-terminus, chain copies: 2.
For data set [2], the target named is T1, SARS-CoV-2 nucleocapsid C-terminal …. The data set can be described thus: EMSA. To be noted: protein: recombinant; tags: N-terminal His6 removed by TEV; residual Gly-Ala-Ser at N-terminus; chain copies: 2. (In general: Mobility shift assays separate free from complexed probe on a gel.)

B1: 17-bp dsDNA (DNA mimic of SL3/TRS RNA) (dsDNA)
DNA 1: TGTTCTCTAAACGAACT
DNA 2: AGTTCGTTTAGAGAACA
In the case of B1, the binding result in data set [1] (blunt) is listed as “binds”.

B2: 17-mer ssDNA (DNA mimic of SL3/TRS RNA) (ssDNA)
DNA: TGTTCTCTAAACGAACT
As for B2, in data set [1], the binding result is listed as “binds”.

B3: 17-mer ssRNA (5' UTR SL3/TRS) (ssRNA)
RNA: UGUUCUCUAAACGAACU
With B3, the binding result in data set [2] is listed as “binds”.

For the origin of these results see paper PMC7406681, “Structural characterization of the C-terminal domain of SARS-CoV-2 nucleocapsid protein”.
